Key:
[1] = test system: CN(C(=S)Cn1nc2c(c1C(F)(F)F)CCC2)c1ccccc1; conditions: Homo sapiens; dose 40.0 nM
[2] = test system: CN(C(=S)Cn1nc2c(c1C(F)(F)F)CCC2)c1ccccc1; conditions: Homo sapiens; dose 30.0 nM
Description: Inhibition of human DNA polymerase theta assessed as substrate Km using dNTP as substrate at 30 nM

[3] = test system: CN(C(=S)Cn1nc2c(c1C(F)(F)F)CCC2)c1ccccc1; conditions: Homo sapiens; dose 10.0 nM
[4] = test system: CN(C(=S)Cn1nc2c(c1C(F)(F)F)CCC2)c1ccccc1; conditions: Homo sapiens; dose 20.0 nM
[5] = test system: CN(C(=S)Cn1nc2c(c1C(F)(F)F)CCC2)c1ccccc1; conditions: Homo sapiens; dose 5.0 nM
Description: Inhibition of human DNA polymerase theta assessed as substrate Vmax using dNTP as substrate at 5 nM

[6] = test system: CN(C(=S)Cn1nc2c(c1C(F)(F)F)CCC2)c1ccccc1; conditions: Homo sapiens; dose 2.5 nM
Description: Inhibition of human DNA polymerase theta assessed as substrate Vmax using dNTP as substrate at 2.5 nM

[7] = test system: CN(C(=S)Cn1nc2c(c1C(F)(F)F)CCC2)c1ccccc1; conditions: Homo sapiens; dose 5.0 nM; remark: listed apart in the source
Description: Inhibition of human DNA polymerase theta assessed as substrate Km using dNTP as substrate at 5 nM

[8] = test system: CN(C(=S)Cn1nc2c(c1C(F)(F)F)CCC2)c1ccccc1; conditions: Homo sapiens; dose 30.0 nM; remark: listed apart in the source
Description: Inhibition of human DNA polymerase theta assessed as substrate Vmax using dNTP as substrate at 30 nM

[9] = test system: CN(C(=S)Cn1nc2c(c1C(F)(F)F)CCC2)c1ccccc1; conditions: Homo sapiens; dose 20.0 nM; remark: listed apart in the source
[10] = test system: CN(C(=S)Cn1nc2c(c1C(F)(F)F)CCC2)c1ccccc1; conditions: Homo sapiens; dose 40.0 nM; remark: listed apart in the source
[11] = test system: CN(C(=S)Cn1nc2c(c1C(F)(F)F)CCC2)c1ccccc1; conditions: Homo sapiens; dose 2.5 nM; remark: listed apart in the source
Description: Inhibition of human DNA polymerase theta assessed as substrate Km using dNTP as substrate at 2.5 nM

[12] = test system: CN(C(=S)Cn1nc2c(c1C(F)(F)F)CCC2)c1ccccc1; conditions: Homo sapiens; dose 10.0 nM; remark: listed apart in the source

With “DNA polymerase theta (Homo sapiens), O75417” the Km [1] was 39.5 µM, the Km [2] was 112 µM and the Km [3] was 24 µM. It also gave a Km [4] of 57 µM, a Vmax [5] of 51.3 µM/min and a Vmax [6] of 51.2 µM/min. It also gave a Km [7] of 36.6 µM, a Vmax [8] of 15.2 µM/min and a Vmax [9] of 21.8 µM/min. The Vmax [10] was 6.45 µM/min, the Km [11] was 25.2 µM and the Vmax [12] was 25.5 µM/min.
